What was measured:
[1] = molecular target: T1, synthetic peptide Sub-domain 2 Cys 3&6 ΔS (human, not fully specified; biotin on the added C-terminal lysine); assay: peptide ELISA: biotinylated synthetic peptide on neutravidin plate, antibody titrated (legend: 0.1-0.0001 µg/ml; axis 'Log (c)'), anti-mouse HRP, TMB, OD 450 nm
T1 construct: also called sub-domain 2 cys3&6ΔS mutant
T1 peptide: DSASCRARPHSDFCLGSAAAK

[2] = molecular target: T2, synthetic peptide hFn14 sub-domain 2 (human, biotin on the added C-terminal lysine; disulfide bonds as in the solution structure of He et al. 2009); assay: ELISA, synthetic biotin peptide on neutravidin plate; antibody concentration not given
T2 construct: also called sub-domain 2 peptide
T2 peptide: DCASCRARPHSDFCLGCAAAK
Text: FIG. 21B is a graphical representation showing reactivity of anti-Fn14 mAbs CRCBT-06-001, CRCBT-06-002, CRCBT-06-003, CRCBT-06-004, CRCBT-06-005, CRCBT-06-006, CRCBT-06-007 and ITEM-1 with a synthetic peptide representing sub-domain 2 of Fn14. Plates were coated with sub-domain 2 peptide and various dilutions of antibody were allowed to bind, bound antibody was detected with anti-mouse HRP and TMB substrate. The average of duplicate readings are plotted, error bars represent standard deviations. The ELISA was repeated to ensure consistent results. The vertical line at 5 ng/ml within the linear part of the curves is the point at which a comparison of the reactivity of each mAb was analyzed.
The ELISA was performed essentially according to the manufacturer's recommended protocol (Pierce). Briefly, peptide was coated onto wells (in duplicate) at 1-10 μg/ml for 2 hours at room temperature. Wells were washed in PBS/0.05% Tween 20/0.1% BSA 3 times and dilutions of each antibody were added in wash buffer for 1 hour with gentle agitation. After another three washes anti-mouse HRP-conjugated to horse radish peroxidase (HRP; Chemicon) was added at 1/1000 dilution for 1 hour shaking. […] Optical density at 450 nm was quantified using a Spectromax absorbance spectrophotometer.

[3] = molecular target: phage expressed hFn14 mutant H60K (human, UniProt Q9NP84 28-77); assay: phage ELISA (Method 2): antibody coated on the plate, 10-fold dilutions of phage displaying hFn14 H60K; biotin anti-M13 antibody, streptavidin-HRP, TMB, OD 450 nm; x axis = dilution of phage
Protocol: ELISAs showing the reactivity of mutant H60A and H60K hFn14 phage constructs with the anti-Fn14 monoclonal antibodies CRCBT-06-001, CRCBT-06-002, CRCBT-06-004 compared to ITEM-1 and ITEM-4. ITEM-2 was assessed on H60K. Binding was detected using Biotin-conjugated anti-M13-phage monoclonal antibody followed by HRP-conjugated Streptavidin and TMB substrate. Optical density at 450 nm was quantified using a Spectramax spectrophotometer. Error bars for each dilution represent the standard deviation of duplicate assays. X axis=dilution of phage. Methods according to Epitope mapping using phage expressed Fn14—Method 2.
(§1) The wells of Maxisorp immunoplates (Nunc) were coated overnight at 4° C. with the target monoclonal antibodies or recombinant Tweak-Fc at a concentration of 1.5 μg/ml in PBS. mAb 5G8 was used as a negative control for ELISA plates coated with tested antibodies. […] 10-fold serial dilutions of phage were made using PBS solution and phage dilutions were added to the coated, blocked ELISA plates for 1 hour, shaking at room temperature. Phage was subsequently removed from the wells and the ELISA plates were washed three times with PBS/0.05% Tween 20.
Method A: HRP-conjugated anti-M13-phage antibody (GE Healthcare) at a 1/5000 dilution in PBS was then added to the wells of the ELISA plates for 1 hour, shaking at room temperature. […]

[4] = molecular target: phage expressed hFn14 mutant S61A (human, UniProt Q9NP84 28-77); assay: phage ELISA (Method 2), antibody on plate, phage dilution 1/X on the x axis
Text: (§2) For mutants P59A and F63A, binding was detected using HRP-conjugated anti-M13-phage polyclonal IgG and TMB substrate. For all other mutants binding was detected using Biotin-conjugated anti-M13-phage monoclonal antibody followed by HRP-conjugated Streptavidin and TMB substrate. Optical density at 450 nm was quantified using a Spectramax spectrophotometer. Error bars for each dilution represent the standard deviation of duplicate assays. FIG. 27A wild type Fn14, FIG. 27B W42A, FIG. 27C S54A, FIG. 27D A57G, FIG. 27E P59A, FIG. 27F S61A, FIG. 27G F63A, FIG. 27H L65A. In all cases error bars represent the standard deviation. X axis=dilution of phage. Methods according to Epitope mapping using phage expressed Fn14—Method 2
as §1
(§3) Method A: HRP-conjugated anti-M13-phage antibody (GE Healthcare) at a 1/5000 dilution in PBS was then added to the wells of the ELISA plates for 1 hour, shaking at room temperature. The antibody solution was then removed from the wells and the ELISA plates were washed four times with PBS/0.05% Tween 20. Method B: Biotin-conjugated anti-M13-phage antibody (GE Healthcare) diluted in PBS was then added to the wells of the ELISA plates for 1 hour shaking at room temperature. The antibody solution was then removed from the wells and the ELISA plates were washed three times with PBS/0.05% Tween 20. HRP-conjugated Streptavidin diluted in PBS was then added to the wells of the ELISA plates for 1 hour, shaking at room temperature. The solution was then removed from the wells and the ELISA plates were washed three times with PBS/0.05% Tween 20. ELISAs were developed using TMB substrate and the reaction was stopped using 2 M […] solution.

[5] = molecular target: phage expressed hFn14 mutant W42A (human, UniProt Q9NP84 28-77); assay: as above
Text: as §2, §1, §3

[6] = molecular target: phage expressed hFn14 mutant A57G (human, UniProt Q9NP84 28-77); assay: as above
Text: as §2, §1, §3

[7] = molecular target: phage expressed hFn14 mutant P59A (human, UniProt Q9NP84 28-77); assay: as above
Text: as §2, §1, §3

Measured: binding result

Sequence of phage expressed hFn14 mutant A57G (Q9NP84 28-77 A57G): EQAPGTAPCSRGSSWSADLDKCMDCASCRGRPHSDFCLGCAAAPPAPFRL
Sequence of phage expressed hFn14 mutant H60K (Q9NP84 28-77 H60K): as the sequence (Q9NP84 28-77 A57G) above, with G30A, H33K counted along it
Sequence of phage expressed hFn14 mutant S61A (Q9NP84 28-77 S61A): as the sequence (Q9NP84 28-77 A57G) above, with G30A, S34A counted along it
Sequence of phage expressed hFn14 mutant P59A (Q9NP84 28-77 P59A): as the sequence (Q9NP84 28-77 A57G) above, with G30A, P32A counted along it
Sequence of phage expressed hFn14 mutant W42A (Q9NP84 28-77 W42A): as the sequence (Q9NP84 28-77 A57G) above, with W15A, G30A counted along it

B1: CRCBT-06-001 (antibody, IgG2b, V domains shown)
VH: QVQLQQSGGGLVQPGGSMKLSCIASGFTFSSYWMSWVRQSPEKGLEWVAEIRSKSDNYATHYAESVKGKFTISRDDSKSRFFLQMNNLRAEDTGIYYCSSTYADYFHYWGQGTDLTVSS
VL: DIVMTQTPASLAVSLGQRATISCRASQSVSTSTYSYMHWYQQKPGQPPKLLIKYASSLESGVPARFSGSGSGTDFTLNIHPVEEDDTATYYCQHSWEIPYTFGGGTKLEIKR
binds: all assays above

B2: CRCBT-06-002 (antibody, IgG1, V domains shown)
VH: EVKLQQSGGGLVQPGGSMKLSCVASGFTFSYYWMNWVRQSPEQGLEWIAEIRLQSNDYPTHYAESVKGRFTISRDDSKNSVYLQMNNLRPEDTGIYYCACRYADYFDHWGQGTTLTVSS
VL: DTVLTQSPASLVVSLGQRATISCRASQSVSTSDYSYIHWYQQKPGQPPKFLIKYASNRDSGVPARFSGSGSGTDFTLNIHPVEEDDTAIYYCQHSWEIPPTFGAGTKLELQR
binds: all assays above

Source: patent publication US20200239586A1 (LA TROBE UNIVERSITY, published 2020)
